The assay has as its target Human eotaxin (human, UniProt P51671 24-97). The assay is described as follows: cell-based or functional assay.

Sequence of Human eotaxin (P51671 24-97 limits assumed): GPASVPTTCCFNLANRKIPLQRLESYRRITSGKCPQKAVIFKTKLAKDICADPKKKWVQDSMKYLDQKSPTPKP

B1: CAT-212 (scFv, part only; not given: scFv linker and myc/His tag, V domains shown, not shown: another chain or arm of the molecule; small tags and cut ends)
VH: QVQLVQSGGGVVQPGRSLRLSCAASGFTFSSYGMHWVRQAPGKGLEWVAVISYDGSIKHYADSVKGRFTISRDNSKNTLYLQMNSLRTDDTAVYYCAGDTDYGDIDPWGQGTMVTVSS
VL: DIQMTQSPSSVSASVGDRVTITCRASQDISSWLAWYQQKPGKAPKLLIYAASSLQSGVPSRFSGSGSGTDFTLTISSLQPEDFATYYCQQASSFPSITFGQGTRLEIK
Molecule B1 showed an IC50, inhibition of eotaxin-induced Ca^2+ flux in CCR3 cells (area under the curve, FLIPR) of 5 nM and an IC50, inhibition of eotaxin-mediated chemotaxis of CCR3 transfected L1.2 cells of 0.65 nM.

B2: CAT-213 (antibody, human IgG4, V domains shown)
VH: B1 VH
VL: DIQMTQSPSSVSASVGDRVTITCRASQDISSWLAWYQQKPGKAPKLLIYAASSLQSGVPSRFSGSGSGTDFTLTISSLQPEDFATYYCQQASSFPSITFGQGTRLEIKR
On to B2, for which the “IC50, inhibition of eotaxin-mediated chemotaxis of CCR3 transfected L1.2 cells” value came to 0.7 nM and the “geometric mean IC50, inhibition of eotaxin-evoked shape change of human eosinophils (forward scatter)” value is 0.714 nM.

The record behind these values is patent publication US20040014132A1 (AstraZeneca / MedImmune, published 2004).
